Measurements as given in patent US20190077860A1 (EISAI R AND D MANAGEMENT, published 2019).
Substitutions are numbered along the chain they refer to.

T1: human EphA3 extracellular region-SEAP-His protein (human, UniProt P29320 21-541)
T1 construct: extracellular domain; also called hEphA3-SEAP-His
T1 sequence (looked up): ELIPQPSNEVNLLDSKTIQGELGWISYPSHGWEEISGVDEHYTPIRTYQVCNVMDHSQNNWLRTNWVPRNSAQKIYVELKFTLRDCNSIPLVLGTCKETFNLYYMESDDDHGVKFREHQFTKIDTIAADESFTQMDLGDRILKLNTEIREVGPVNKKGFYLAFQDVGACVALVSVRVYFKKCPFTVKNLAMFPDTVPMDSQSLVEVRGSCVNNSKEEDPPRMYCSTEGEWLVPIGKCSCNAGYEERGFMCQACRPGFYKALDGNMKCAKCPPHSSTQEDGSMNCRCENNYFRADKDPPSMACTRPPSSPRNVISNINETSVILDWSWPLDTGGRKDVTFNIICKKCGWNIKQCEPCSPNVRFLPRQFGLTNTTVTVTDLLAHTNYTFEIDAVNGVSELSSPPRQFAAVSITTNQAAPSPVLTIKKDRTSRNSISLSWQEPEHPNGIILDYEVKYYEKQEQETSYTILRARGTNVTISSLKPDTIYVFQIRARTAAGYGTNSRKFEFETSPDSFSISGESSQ

T2: human EphB3 extracellular region-SEAP-His protein (human, UniProt P54753 34-559)
T2 construct: extracellular domain; also called hEphB3-SEAP-His
T2 sequence (looked up): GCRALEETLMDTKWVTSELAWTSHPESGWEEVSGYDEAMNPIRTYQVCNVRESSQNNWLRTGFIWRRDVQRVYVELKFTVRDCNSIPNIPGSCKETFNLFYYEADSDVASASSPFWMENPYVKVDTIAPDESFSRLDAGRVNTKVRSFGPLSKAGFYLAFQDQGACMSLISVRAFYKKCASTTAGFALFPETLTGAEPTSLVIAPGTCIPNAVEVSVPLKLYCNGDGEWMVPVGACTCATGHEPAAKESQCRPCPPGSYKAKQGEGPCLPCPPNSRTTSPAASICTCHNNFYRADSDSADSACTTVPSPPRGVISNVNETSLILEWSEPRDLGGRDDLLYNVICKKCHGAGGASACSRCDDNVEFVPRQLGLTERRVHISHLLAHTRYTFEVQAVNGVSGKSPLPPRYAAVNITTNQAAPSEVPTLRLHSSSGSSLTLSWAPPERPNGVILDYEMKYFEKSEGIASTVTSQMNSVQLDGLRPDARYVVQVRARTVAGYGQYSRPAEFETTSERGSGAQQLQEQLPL

T3: human EphB2 extracellular region-SEAP-His protein (human, UniProt P29323 19-543)
T3 construct: extracellular domain; also called hEphB2-SEAP-His
T3 sequence (looked up): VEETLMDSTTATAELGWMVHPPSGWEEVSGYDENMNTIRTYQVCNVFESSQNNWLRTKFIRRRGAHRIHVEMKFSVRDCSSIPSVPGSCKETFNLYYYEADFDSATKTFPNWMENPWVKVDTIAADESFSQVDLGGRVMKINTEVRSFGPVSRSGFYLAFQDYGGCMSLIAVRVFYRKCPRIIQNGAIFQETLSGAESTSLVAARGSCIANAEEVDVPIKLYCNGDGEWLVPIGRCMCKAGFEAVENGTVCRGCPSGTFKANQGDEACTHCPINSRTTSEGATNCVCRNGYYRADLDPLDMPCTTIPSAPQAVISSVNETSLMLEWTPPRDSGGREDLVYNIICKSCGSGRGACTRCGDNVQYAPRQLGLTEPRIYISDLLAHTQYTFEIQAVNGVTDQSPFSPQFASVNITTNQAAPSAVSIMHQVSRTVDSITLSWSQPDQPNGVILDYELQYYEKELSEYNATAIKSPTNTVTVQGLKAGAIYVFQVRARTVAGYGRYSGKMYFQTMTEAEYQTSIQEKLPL

T4: human EphA1 extracellular region-SEAP-His protein (human, UniProt P21709 26-547)
T4 construct: extracellular domain; also called hEphA1-SEAP-His
T4 sequence (looked up): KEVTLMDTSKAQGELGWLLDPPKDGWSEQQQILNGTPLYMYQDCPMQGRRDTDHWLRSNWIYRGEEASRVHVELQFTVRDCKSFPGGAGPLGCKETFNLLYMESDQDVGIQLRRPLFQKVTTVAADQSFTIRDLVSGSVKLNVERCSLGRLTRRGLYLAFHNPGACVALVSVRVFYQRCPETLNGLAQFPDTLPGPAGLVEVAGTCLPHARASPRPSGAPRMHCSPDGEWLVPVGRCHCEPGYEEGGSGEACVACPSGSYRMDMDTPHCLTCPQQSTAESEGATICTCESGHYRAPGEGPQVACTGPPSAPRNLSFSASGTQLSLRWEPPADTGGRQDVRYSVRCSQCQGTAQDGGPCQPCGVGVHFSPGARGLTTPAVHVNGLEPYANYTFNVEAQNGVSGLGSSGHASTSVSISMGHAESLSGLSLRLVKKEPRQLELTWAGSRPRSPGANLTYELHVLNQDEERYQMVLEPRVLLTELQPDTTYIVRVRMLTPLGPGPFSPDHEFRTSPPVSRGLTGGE

B1: humanized antibody No. 135 (antibody, human IgG2)
heavy: QVQLVQSGSELKKPGASVKVSCKASGYTFTDYSMHWVRQAPGQGLEWMGWINTETGEPTYADDFKGRFVFSLDTSVSTAYLQISSLKAEDTAVYYCARIPLYYYGSRYWYFDVWGQGTTVTVSSASTKGPSVFPLAPSSRSTSESTAALGCLVKDYFPEPVTVSWNSGALTSGVHTFPAVLQSSGLYSLSSVVTVPSSNFGTQTYTCNVDHKPSNTKVDKTVERKSCVECPPCPAPPAAAPSVFLFPPKPKDTLMISRTPEVTCVVVDVSHEDPEVQFNWYVDGVEVHNAKTKPREEQFNSTFRVVSVLTVVHQDWLNGKEYKCKVSNKGLPAPIEKTISKTKGQPREPQVYTLPPSREEMTKNQVSLTCLVKGFYPSDIAVEWESNGQPENNYKTTPPMLDSDGSFFLYSKLTVDKSRWQQGNVFSCSVMHEALHNHYTQKSLSLSPG
light: EIVMTQSPATLSVSPGERATLSCRASENIYRNLAWYQQKPGQSPRLLIYAATNLADGIPARFSGSGSGTEYTLTISSLQSEDFAVYYCQHFWGTPWTFGQGTKVEIKRTVAAPSVFIFPPSDEQLKSGTASVVCLLNNFYPREAKVQWKVDNALQSGNSQESVTEQDSKDSTYSLSSTLTLSKADYEKHKVYACEVTHQGLSSPVTKSFNRGEC
notes: human Ig kappa; also called L2-4/HK1
B2: humanized antibody No. 94 (antibody, human IgG1, kappa)
heavy: QVQLVQSGSELKKPGASVKVSCKASGYTFTDYSMHWVRQAPGQGLKWMGWINTETGEPTYAQGFTGRFVFSLDTSVSTAYLQISSLKAEDTAVYYCARIPLYYYGSRYWYFDVWGQGTTVTVSSASTKGPSVFPLAPSSKSTSGGTAALGCLVKDYFPEPVTVSWNSGALTSGVHTFPAVLQSSGLYSLSSVVTVPSSSLGTQTYICNVNHKPSNTKVDKRVEPKSCDKTHTCPPCPAPPAAAPSVFLFPPKPKDTLMISRTPEVTCVVVDVSHEDPEVQFNWYVDGVEVHNAKTKPREEQFNSTFRVVSVLTVVHQDWLNGKEYKCKVSNKGLPAPIEKTISKTKGQPREPQVYTLPPSREEMTKNQVSLTCLVKGFYPSDIAVEWESNGQPENNYKTTPPMLDSDGSFFLYSKLTVDKSRWQQGNVFSCSVMHEALHNHYTQKSLSLSPG
light: B1 light
notes: human Ig kappa; also called L2-4/HA2
B3: humanized antibody No. 71 (antibody, human IgG1, kappa)
heavy: B2 heavy with V2I
light: B1 light
notes: human Ig kappa; also called L2-4/HA4
B4: humanized antibody No. 93 (antibody, human IgG1, kappa)
heavy: B2 heavy with K46E
light: B1 light
notes: human Ig kappa; also called L2-4/HA1
B5: humanized antibody No. 95 (antibody, human IgG1, kappa)
heavy: B2 heavy with K46E, Q62D, G63D, T65K
light: B1 light
notes: as for B1
B6: humanized antibody No. 136 (antibody, human IgG2)
heavy: B1 heavy with E46K
light: B1 light
notes: human Ig kappa; also called L2-4/HK2
B7: humanized antibody No. 73 (antibody, human IgG1, kappa)
heavy: B2 heavy with V2I, Q62D, G63D, T65K
light: B1 light
notes: human Ig kappa; also called L2-4/HK4
B8: humanized antibody No. 137 (antibody, human IgG2)
heavy: B1 heavy with V2I, E46K
light: B1 light
notes: as for B7
B9: humanized antibody No. 96 (antibody, human IgG1, kappa)
heavy: B2 heavy with Q62D, G63D, T65K
light: B1 light
notes: as for B6

What follows are binders tested against SEAP-His (UniProt P05187 23-511) (assay: ELISA).
Chain of SEAP-His (P05187 23-511): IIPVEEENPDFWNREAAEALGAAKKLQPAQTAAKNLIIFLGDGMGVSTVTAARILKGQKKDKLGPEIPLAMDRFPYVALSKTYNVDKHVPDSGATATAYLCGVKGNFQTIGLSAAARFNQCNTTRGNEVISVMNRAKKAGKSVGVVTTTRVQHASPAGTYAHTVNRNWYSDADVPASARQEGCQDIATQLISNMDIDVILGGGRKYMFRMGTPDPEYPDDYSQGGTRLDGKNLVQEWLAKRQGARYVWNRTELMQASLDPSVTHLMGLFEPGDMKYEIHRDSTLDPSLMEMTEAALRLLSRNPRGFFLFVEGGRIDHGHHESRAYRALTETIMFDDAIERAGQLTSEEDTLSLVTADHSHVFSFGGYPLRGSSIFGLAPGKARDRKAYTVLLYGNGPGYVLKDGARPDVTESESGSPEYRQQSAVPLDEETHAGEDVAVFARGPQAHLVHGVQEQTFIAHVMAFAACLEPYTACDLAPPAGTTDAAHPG

A450 as % of hEphA4-SEAP-His [%] | Binder
5.3 | B1
6.7 | B2
5.6 | B3
5 | B4
4.4 | B5
5.2 | B6
5.8 | B7
5.9 | B8
5.5 | B9

Each binder was assayed against T1, human EphA3 extracellular … (assay: ELISA).

A450 as % of hEphA4-SEAP-His [%] | Binder
5 | B1
6.8 | B2
5.6 | B3
5.1 | B4
4.8 | B5
5.2 | B6
5.8 | B7
5.6 | B8
5.5 | B9

Each binder was assayed against T2, human EphB3 extracellular … (assay: ELISA).

A450 as % of hEphA4-SEAP-His [%] | Binder
5 | B1
6.7 | B2
5.5 | B3
5.1 | B4
4.6 | B5
5.5 | B6
5.8 | B7
5.7 | B8
5.6 | B9

The binders below were run against T5, human EphA5 extracellular region-SEAP-His protein (human, UniProt P54756 25-573) (assay: ELISA).
T5 construct: extracellular domain; also called hEphA5-SEAP-His
T5 sequence (P54756 25-573): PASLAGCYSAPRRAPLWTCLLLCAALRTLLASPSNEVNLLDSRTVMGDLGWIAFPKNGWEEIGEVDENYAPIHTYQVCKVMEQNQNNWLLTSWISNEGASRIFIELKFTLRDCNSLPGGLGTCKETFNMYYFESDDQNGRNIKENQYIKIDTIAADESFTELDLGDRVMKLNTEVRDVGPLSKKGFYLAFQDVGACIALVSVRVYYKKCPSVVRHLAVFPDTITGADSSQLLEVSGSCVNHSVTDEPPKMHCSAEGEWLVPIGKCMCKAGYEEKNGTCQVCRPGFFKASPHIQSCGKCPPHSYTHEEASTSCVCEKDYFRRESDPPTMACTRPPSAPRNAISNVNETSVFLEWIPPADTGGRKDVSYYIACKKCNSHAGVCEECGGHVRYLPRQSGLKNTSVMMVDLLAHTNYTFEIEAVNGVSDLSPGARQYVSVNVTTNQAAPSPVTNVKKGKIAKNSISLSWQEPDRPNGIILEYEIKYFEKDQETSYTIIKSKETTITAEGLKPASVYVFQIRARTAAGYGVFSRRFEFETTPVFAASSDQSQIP

A450 as % of hEphA4-SEAP-His [%] | Binder
5 | B1
6.5 | B2
5.6 | B3
4.9 | B4
4.6 | B5
5.2 | B6
6 | B7
5.7 | B8
6 | B9

The binders below were run against T3, human EphB2 extracellular … (assay: ELISA).

A450 as % of hEphA4-SEAP-His [%] | Binder
5 | B1
7 | B2
5.5 | B3
5 | B4
4.7 | B5
5.3 | B6
5.6 | B7
5.6 | B8
5.5 | B9

Each binder was assayed against T4, human EphA1 extracellular … (assay: ELISA).

A450 as % of hEphA4-SEAP-His [%] | Binder
5.2 | B1
6.5 | B2
5.6 | B3
5 | B4
4.5 | B5
5.3 | B6
6 | B7
6.1 | B8
5.6 | B9
